{"source": "paper PMC11480844", "about": "(2024); note: test concentration or dose not given here", "parents": {"B1": {"name": "H2-Kb / Ed28 (parent complex)", "chain 1": "AQSVTQPDARVTVSEGASLQLRCKYSYFGTPYLFWYVQYPRQGLQLLLKYYPGDPVVQGVNGFEAEFSKSNSSFHLRKASVHWSDWAVYFCAVSPGSGGKLTLGAGTRLQVNL", "chain 2": "DSGVVQSPRHIIKEKGGRSVLTCIPISGHSNVVWYQQTLGKELKFLIQHYEKVERDKGFLPSRFSVQQFDDYHSEMNMSALELEDSAMYFCASSPRASDYTFGSGTRLLVI", "chain 3": "not shown", "chain 4": "IQKTPQIQVYSRHPPENGKPNILNCYVTQFHPPHIEIQMLKNGKKIPKVEMSDMSFSKDWSFYILAHTEFTPTETDTYACRVKHDSMAEPKTVYWDRDM", "chain 5": "SIINFEKL"}, "B2": {"name": "H2-Kb / F4 (parent complex)", "chain 1": "QQQVRQSPQSLTVWEGETAILNCSYEDSTFNYFPWYQQFPGEGPALLISIRSVSDKKEDGRFTIFFNKREKKLSLHITDSQPGDSATYFCAAMSNYNVLYFGSGTKLTVEP", "chain 2": "ETAVFQTPNYHVTQVGNEVSFNCKQTLGHDTMYWYKQDSKKLLKIMFSYNNKQLIVNETVPRRFSPQSSDKAHLNLRIKSVEPEDSAVYLCASSARQNSPLYFAAGTRLTVT", "chain 3": "not shown", "chain 4": "B1 chain 4", "chain 5": "SIINFEKL"}}, "data": [{"variants_of": "B1", "assay": "% of reporter cells activated (NFAT-GFP), raw", "values": [{"variant": "chain 5 F5I", "ratio to parent": 0.388}, {"variant": "chain 5 F5Q", "ratio to parent": 0.455}, {"variant": "chain 5 L8Y", "ratio to parent": 0.902}, {"variant": "chain 5 K7E", "ratio to parent": 0.013}, {"variant": "chain 5 L8N", "ratio to parent": 0.594}, {"variant": "chain 5 N4G", "ratio to parent": 0.00642}, {"variant": "chain 5 N4W", "ratio to parent": 0.00775}, {"variant": "chain 5 E6M", "ratio to parent": 0.0743}, {"variant": "chain 5 I2T", "ratio to parent": 1.34}, {"variant": "chain 5 N4S", "ratio to parent": 0.0271}, {"variant": "chain 5 S1M", "ratio to parent": 0.908}, {"variant": "chain 5 F5S", "ratio to parent": 0.867}]}, {"variants_of": "B2", "assay": "% of reporter cells activated (NFAT-GFP), raw", "values": [{"variant": "chain 5 E6C", "ratio to parent": 0.537}, {"variant": "chain 5 K7T", "ratio to parent": 0.628}, {"variant": "chain 5 I3W", "ratio to parent": 0.358}, {"variant": "chain 5 S1H", "ratio to parent": 0.0509}, {"variant": "chain 5 I2S", "ratio to parent": 1.05}, {"variant": "chain 5 L8V", "ratio to parent": 0.457}, {"variant": "chain 5 K7D", "ratio to parent": 0.101}, {"variant": "chain 5 S1N", "ratio to parent": 0.0308}, {"variant": "chain 5 L8S", "ratio to parent": 0.515}, {"variant": "chain 5 L8M", "ratio to parent": 0.723}, {"variant": "chain 5 S1C", "ratio to parent": 0.0254}, {"variant": "chain 5 E6Q", "ratio to parent": 0.0246}, {"variant": "chain 5 F5S", "ratio to parent": 0.767}, {"variant": "chain 5 I3D", "ratio to parent": 0.0344}, {"variant": "chain 5 E6D", "ratio to parent": 0.987}, {"variant": "chain 5 E6I", "ratio to parent": 0.00942}, {"variant": "chain 5 I2E", "ratio to parent": 0.807}, {"variant": "chain 5 I2K", "ratio to parent": 0.0728}, {"variant": "chain 5 F5Q", "ratio to parent": 0.517}, {"variant": "chain 5 I3G", "ratio to parent": 0.0625}, {"variant": "chain 5 I2L", "ratio to parent": 1.25}, {"variant": "chain 5 N4T", "ratio to parent": 0.0402}, {"variant": "chain 5 K7R", "ratio to parent": 1.23}, {"variant": "chain 5 I3F", "ratio to parent": 1}, {"variant": "chain 5 N4S", "ratio to parent": 0.0317}, {"variant": "chain 5 L8W", "ratio to parent": 0.491}, {"variant": "chain 5 F5A", "ratio to parent": 0.967}, {"variant": "chain 5 I3Q", "ratio to parent": 0.0638}, {"variant": "chain 5 F5V", "ratio to parent": 1.38}, {"variant": "chain 5 K7A", "ratio to parent": 0.222}, {"variant": "chain 5 N4K", "ratio to parent": 0.0286}, {"variant": "chain 5 E6S", "ratio to parent": 0.0357}, {"variant": "chain 5 K7F", "ratio to parent": 0.726}, {"variant": "chain 5 K7S", "ratio to parent": 0.261}, {"variant": "chain 5 L8P", "ratio to parent": 0.48}, {"variant": "chain 5 F5W", "ratio to parent": 0.083}, {"variant": "chain 5 K7I", "ratio to parent": 0.771}, {"variant": "chain 5 L8N", "ratio to parent": 0.47}, {"variant": "chain 5 N4D", "ratio to parent": 0.0277}, {"variant": "chain 5 I3R", "ratio to parent": 0.0634}, {"variant": "chain 5 E6K", "ratio to parent": 0.118}, {"variant": "chain 5 I3Y", "ratio to parent": 0.517}, {"variant": "chain 5 F5K", "ratio to parent": 0.109}, {"variant": "chain 5 K7M", "ratio to parent": 0.651}, {"variant": "chain 5 S1T", "ratio to parent": 0.0232}, {"variant": "chain 5 E6T", "ratio to parent": 0.0219}, {"variant": "chain 5 I2Q", "ratio to parent": 0.181}, {"variant": "chain 5 L8A", "ratio to parent": 0.395}, {"variant": "chain 5 K7G", "ratio to parent": 0.234}, {"variant": "chain 5 N4H", "ratio to parent": 0.0344}, {"variant": "chain 5 K7L", "ratio to parent": 0.85}, {"variant": "chain 5 S1P", "ratio to parent": 0.0438}, {"variant": "chain 5 L8R", "ratio to parent": 0.276}, {"variant": "chain 5 E6N", "ratio to parent": 0.0563}, {"variant": "chain 5 F5N", "ratio to parent": 0.225}, {"variant": "chain 5 L8Q", "ratio to parent": 0.759}, {"variant": "chain 5 S1K", "ratio to parent": 0.0638}, {"variant": "chain 5 N4F", "ratio to parent": 0.0339}, {"variant": "chain 5 I3T", "ratio to parent": 0.204}, {"variant": "chain 5 E6L", "ratio to parent": 0.0121}, {"variant": "chain 5 I2G", "ratio to parent": 1.45}, {"variant": "chain 5 L8Y", "ratio to parent": 0.898}, {"variant": "chain 5 S1W", "ratio to parent": 0.0183}, {"variant": "chain 5 S1I", "ratio to parent": 0.0174}, {"variant": "chain 5 S1Y", "ratio to parent": 0.0768}, {"variant": "chain 5 I3C", "ratio to parent": 0.558}, {"variant": "chain 5 F5M", "ratio to parent": 1.29}, {"variant": "chain 5 L8I", "ratio to parent": 0.903}, {"variant": "chain 5 S1A", "ratio to parent": 0.0272}, {"variant": "chain 5 K7N", "ratio to parent": 0.254}, {"variant": "chain 5 N4Q", "ratio to parent": 0.0116}, {"variant": "chain 5 N4I", "ratio to parent": 0.0205}, {"variant": "chain 5 I3M", "ratio to parent": 0.125}, {"variant": "chain 5 I3S", "ratio to parent": 0.106}, {"variant": "chain 5 F5L", "ratio to parent": 0.554}, {"variant": "chain 5 K7Y", "ratio to parent": 1.03}, {"variant": "chain 5 I2P", "ratio to parent": 0.16}, {"variant": "chain 5 N4P", "ratio to parent": 0.0246}, {"variant": "chain 5 E6M", "ratio to parent": 0.0214}, {"variant": "chain 5 I2Y", "ratio to parent": 0.108}, {"variant": "chain 5 L8E", "ratio to parent": 0.355}, {"variant": "chain 5 I3H", "ratio to parent": 0.0214}, {"variant": "chain 5 S1Q", "ratio to parent": 0.0344}, {"variant": "chain 5 L8F", "ratio to parent": 0.564}, {"variant": "chain 5 E6Y", "ratio to parent": 0.0161}, {"variant": "chain 5 E6P", "ratio to parent": 0.0487}, {"variant": "chain 5 I2D", "ratio to parent": 0.406}, {"variant": "chain 5 S1L", "ratio to parent": 0.0263}, {"variant": "chain 5 E6H", "ratio to parent": 0.0263}, {"variant": "chain 5 K7E", "ratio to parent": 0.105}, {"variant": "chain 5 N4V", "ratio to parent": 0.0362}, {"variant": "chain 5 E6A", "ratio to parent": 0.05}, {"variant": "chain 5 L8K", "ratio to parent": 0.352}, {"variant": "chain 5 K7W", "ratio to parent": 0.517}, {"variant": "chain 5 L8C", "ratio to parent": 0.783}, {"variant": "chain 5 I2C", "ratio to parent": 2.17}, {"variant": "chain 5 N4Y", "ratio to parent": 0.0299}, {"variant": "chain 5 I3P", "ratio to parent": 0.083}, {"variant": "chain 5 S1G", "ratio to parent": 0.188}, {"variant": "chain 5 N4G", "ratio to parent": 0.225}, {"variant": "chain 5 N4R", "ratio to parent": 0.0277}, {"variant": "chain 5 I2W", "ratio to parent": 0.641}, {"variant": "chain 5 E6G", "ratio to parent": 0.0237}, {"variant": "chain 5 L8D", "ratio to parent": 0.312}, {"variant": "chain 5 I3N", "ratio to parent": 0.188}, {"variant": "chain 5 K7C", "ratio to parent": 0.377}, {"variant": "chain 5 K7V", "ratio to parent": 0.927}, {"variant": "chain 5 F5E", "ratio to parent": 0.0661}, {"variant": "chain 5 S1V", "ratio to parent": 0.0638}, {"variant": "chain 5 I3E", "ratio to parent": 0.0777}, {"variant": "chain 5 F5Y", "ratio to parent": 0.526}, {"variant": "chain 5 I2H", "ratio to parent": 0.0964}, {"variant": "chain 5 F5R", "ratio to parent": 0.285}, {"variant": "chain 5 I2T", "ratio to parent": 0.773}, {"variant": "chain 5 I3K", "ratio to parent": 0.262}, {"variant": "chain 5 S1F", "ratio to parent": 0.0348}, {"variant": "chain 5 F5T", "ratio to parent": 1.19}, {"variant": "chain 5 K7Q", "ratio to parent": 0.417}, {"variant": "chain 5 E6W", "ratio to parent": 0.113}, {"variant": "chain 5 L8G", "ratio to parent": 0.564}, {"variant": "chain 5 S1D", "ratio to parent": 0.0189}, {"variant": "chain 5 F5H", "ratio to parent": 1.01}, {"variant": "chain 5 K7H", "ratio to parent": 1.35}, {"variant": "chain 5 E6F", "ratio to parent": 0.033}, {"variant": "chain 5 N4A", "ratio to parent": 0.0308}, {"variant": "chain 5 E6V", "ratio to parent": 0.0232}, {"variant": "chain 5 F5I", "ratio to parent": 1.36}, {"variant": "chain 5 E6R", "ratio to parent": 0.0897}, {"variant": "chain 5 N4L", "ratio to parent": 0.0594}, {"variant": "chain 5 I2F", "ratio to parent": 0.955}, {"variant": "chain 5 I3V", "ratio to parent": 1.74}, {"variant": "chain 5 I3L", "ratio to parent": 2.05}, {"variant": "chain 5 K7P", "ratio to parent": 0.0549}, {"variant": "chain 5 S1M", "ratio to parent": 0.0268}, {"variant": "chain 5 N4C", "ratio to parent": 0.0522}, {"variant": "chain 5 I2R", "ratio to parent": 0.393}, {"variant": "chain 5 N4M", "ratio to parent": 0.021}, {"variant": "chain 5 S1E", "ratio to parent": 0.029}]}]}
